Data published in patent US20220204580A1 (AstraZeneca / MedImmune, published 2022).
Numbered stars: 1 amine (or outer) side, 2 acyl side, 3 side chain; on linkers, the order of the positions; unused ones are H or OH. Bridge positions count the residues as written; N and C are the ends. Square brackets hold non-standard residues; d marks the D form. Side chains are listed from the residue outwards. Ends that are not written are not given here. * marks the point of attachment. C20 diacid = O=C(O)CCCCCCCCCCCCCCCCCCC(=O)*; C18 diacid = O=C(O)CCCCCCCCCCCCCCCCC(=O)*; γGlu = O=C(O)[C@H](CCC(=O)[*:2])N[*:1]; αMeF = C[C@](N)(Cc1ccccc1)C(=O)O; Dab = NCC[C@H](N)C(=O)O; Aib = CC(C)(N)C(=O)O

T1: human amylin receptor (calcitonin receptor co-expressed with receptor activity modifying protein, RAMP3) (human, UniProt P30988 25-474; O60896 24-148)
T1 sequence (looked up) 1: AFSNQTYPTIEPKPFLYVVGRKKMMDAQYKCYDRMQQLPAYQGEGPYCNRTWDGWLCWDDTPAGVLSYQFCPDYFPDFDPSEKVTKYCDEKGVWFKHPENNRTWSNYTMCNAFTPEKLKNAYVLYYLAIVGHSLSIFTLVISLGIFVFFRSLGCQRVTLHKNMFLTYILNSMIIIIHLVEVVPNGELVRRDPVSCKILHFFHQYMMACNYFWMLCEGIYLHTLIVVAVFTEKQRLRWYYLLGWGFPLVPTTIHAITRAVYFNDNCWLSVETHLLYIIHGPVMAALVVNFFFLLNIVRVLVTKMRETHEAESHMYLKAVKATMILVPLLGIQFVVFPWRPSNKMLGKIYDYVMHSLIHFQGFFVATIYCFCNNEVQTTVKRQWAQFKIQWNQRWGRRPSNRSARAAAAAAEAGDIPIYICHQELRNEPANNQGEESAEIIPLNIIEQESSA
T1 sequence (looked up) 2: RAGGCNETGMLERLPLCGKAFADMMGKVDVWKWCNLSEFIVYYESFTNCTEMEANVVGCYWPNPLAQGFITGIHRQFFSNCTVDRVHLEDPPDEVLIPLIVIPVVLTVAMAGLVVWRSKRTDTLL

T2: human calcitonin receptor (human, UniProt P30988 25-474)
T2 sequence (looked up): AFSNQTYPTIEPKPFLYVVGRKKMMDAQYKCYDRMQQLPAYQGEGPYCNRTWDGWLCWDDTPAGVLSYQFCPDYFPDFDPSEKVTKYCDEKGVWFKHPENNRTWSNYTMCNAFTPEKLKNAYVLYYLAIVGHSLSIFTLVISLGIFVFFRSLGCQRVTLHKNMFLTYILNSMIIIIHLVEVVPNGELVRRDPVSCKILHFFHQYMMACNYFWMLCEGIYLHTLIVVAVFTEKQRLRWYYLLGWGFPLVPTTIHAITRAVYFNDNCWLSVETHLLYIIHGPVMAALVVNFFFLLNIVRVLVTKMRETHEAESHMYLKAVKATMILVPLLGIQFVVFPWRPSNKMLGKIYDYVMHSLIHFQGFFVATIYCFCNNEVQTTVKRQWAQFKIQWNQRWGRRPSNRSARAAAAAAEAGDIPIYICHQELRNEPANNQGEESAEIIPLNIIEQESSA

B1: Peptide 125 (SEQ ID NO: 125) (peptide)
peptide: K([γGlu-γGlu-C20 diacid])CNTATCATQRLANFLVHSS[Aib]NFPAILSPTNVGS[Dab]TY-NH2
modifications: disulfide 2-7; N-terminus assumed
SMILES: CC[C@H](C)[C@H](NC(=O)[C@H](C)NC(=O)[C@@H]1CCCN1C(=O)[C@H](Cc1ccccc1)NC(=O)[C@H](CC(N)=O)NC(=O)C(C)(C)NC(=O)[C@H](CO)NC(=O)[C@H](CO)NC(=O)[C@H](Cc1c[nH]cn1)NC(=O)[C@@H](NC(=O)[C@H](CC(C)C)NC(=O)[C@H](Cc1ccccc1)NC(=O)[C@H](CC(N)=O)NC(=O)[C@H](C)NC(=O)[C@H](CC(C)C)NC(=O)[C@H](CCCNC(=N)N)NC(=O)[C@H](CCC(N)=O)NC(=O)[C@@H](NC(=O)[C@H](C)NC(=O)[C@@H]1CSSC[C@H](NC(=O)[C@@H](N)CCCCNC(=O)CC[C@H](NC(=O)CC[C@H](NC(=O)CCCCCCCCCCCCCCCCCCC(=O)O)C(=O)O)C(=O)O)C(=O)N[C@@H](CC(N)=O)C(=O)N[C@@H]([C@@H](C)O)C(=O)N[C@@H](C)C(=O)N[C@@H]([C@@H](C)O)C(=O)N1)[C@@H](C)O)C(C)C)C(=O)N[C@@H](CC(C)C)C(=O)N[C@@H](CO)C(=O)N1CCC[C@H]1C(=O)N[C@H](C(=O)N[C@@H](CC(N)=O)C(=O)N[C@H](C(=O)NCC(=O)N[C@@H](CO)C(=O)N[C@@H](CCN)C(=O)N[C@H](C(=O)N[C@@H](Cc1ccc(O)cc1)C(N)=O)[C@@H](C)O)C(C)C)[C@@H](C)O
B2: Peptide 126 (SEQ ID NO: 126) (peptide)
peptide: K([γGlu-C18 diacid])KCNTATCATQRLANFL[Aib]HSS[Dab]NFGPILPPTNVGSNTY-NH2
modifications: disulfide 3-8; N-terminus assumed
SMILES: CC[C@H](C)[C@H](NC(=O)[C@@H]1CCCN1C(=O)CNC(=O)[C@H](Cc1ccccc1)NC(=O)[C@H](CC(N)=O)NC(=O)[C@H](CCN)NC(=O)[C@H](CO)NC(=O)[C@H](CO)NC(=O)[C@H](Cc1c[nH]cn1)NC(=O)C(C)(C)NC(=O)[C@H](CC(C)C)NC(=O)[C@H](Cc1ccccc1)NC(=O)[C@H](CC(N)=O)NC(=O)[C@H](C)NC(=O)[C@H](CC(C)C)NC(=O)[C@H](CCCNC(=N)N)NC(=O)[C@H](CCC(N)=O)NC(=O)[C@@H](NC(=O)[C@H](C)NC(=O)[C@@H]1CSSC[C@H](NC(=O)[C@H](CCCCN)NC(=O)[C@@H](N)CCCCNC(=O)CC[C@H](NC(=O)CCCCCCCCCCCCCCCCC(=O)O)C(=O)O)C(=O)N[C@@H](CC(N)=O)C(=O)N[C@@H]([C@@H](C)O)C(=O)N[C@@H](C)C(=O)N[C@@H]([C@@H](C)O)C(=O)N1)[C@@H](C)O)C(=O)N[C@@H](CC(C)C)C(=O)N1CCC[C@H]1C(=O)N1CCC[C@H]1C(=O)N[C@H](C(=O)N[C@@H](CC(N)=O)C(=O)N[C@H](C(=O)NCC(=O)N[C@@H](CO)C(=O)N[C@@H](CC(N)=O)C(=O)N[C@H](C(=O)N[C@@H](Cc1ccc(O)cc1)C(N)=O)[C@@H](C)O)C(C)C)[C@@H](C)O
B3: Peptide 128 (SEQ ID NO: 128) (peptide)
peptide: K([γGlu-C18 diacid])KCNTATCATQRLAEFL[Aib]HSSNNFGPILPPTNVGSNTY-NH2
modifications: disulfide 3-8; N-terminus assumed
SMILES: CC[C@H](C)[C@H](NC(=O)[C@@H]1CCCN1C(=O)CNC(=O)[C@H](Cc1ccccc1)NC(=O)[C@H](CC(N)=O)NC(=O)[C@H](CC(N)=O)NC(=O)[C@H](CO)NC(=O)[C@H](CO)NC(=O)[C@H](Cc1c[nH]cn1)NC(=O)C(C)(C)NC(=O)[C@H](CC(C)C)NC(=O)[C@H](Cc1ccccc1)NC(=O)[C@H](CCC(=O)O)NC(=O)[C@H](C)NC(=O)[C@H](CC(C)C)NC(=O)[C@H](CCCNC(=N)N)NC(=O)[C@H](CCC(N)=O)NC(=O)[C@@H](NC(=O)[C@H](C)NC(=O)[C@@H]1CSSC[C@H](NC(=O)[C@H](CCCCN)NC(=O)[C@@H](N)CCCCNC(=O)CC[C@H](NC(=O)CCCCCCCCCCCCCCCCC(=O)O)C(=O)O)C(=O)N[C@@H](CC(N)=O)C(=O)N[C@@H]([C@@H](C)O)C(=O)N[C@@H](C)C(=O)N[C@@H]([C@@H](C)O)C(=O)N1)[C@@H](C)O)C(=O)N[C@@H](CC(C)C)C(=O)N1CCC[C@H]1C(=O)N1CCC[C@H]1C(=O)N[C@H](C(=O)N[C@@H](CC(N)=O)C(=O)N[C@H](C(=O)NCC(=O)N[C@@H](CO)C(=O)N[C@@H](CC(N)=O)C(=O)N[C@H](C(=O)N[C@@H](Cc1ccc(O)cc1)C(N)=O)[C@@H](C)O)C(C)C)[C@@H](C)O
B4: Peptide 127 (SEQ ID NO: 127) (peptide)
peptide: K([γGlu-γGlu-C18 diacid])CNTATCATQRLANFL[Aib]HSSNNFGPILPPTNVGSNTY-NH2
modifications: disulfide 2-7; N-terminus assumed
SMILES: CC[C@H](C)[C@H](NC(=O)[C@@H]1CCCN1C(=O)CNC(=O)[C@H](Cc1ccccc1)NC(=O)[C@H](CC(N)=O)NC(=O)[C@H](CC(N)=O)NC(=O)[C@H](CO)NC(=O)[C@H](CO)NC(=O)[C@H](Cc1c[nH]cn1)NC(=O)C(C)(C)NC(=O)[C@H](CC(C)C)NC(=O)[C@H](Cc1ccccc1)NC(=O)[C@H](CC(N)=O)NC(=O)[C@H](C)NC(=O)[C@H](CC(C)C)NC(=O)[C@H](CCCNC(=N)N)NC(=O)[C@H](CCC(N)=O)NC(=O)[C@@H](NC(=O)[C@H](C)NC(=O)[C@@H]1CSSC[C@H](NC(=O)[C@@H](N)CCCCNC(=O)CC[C@H](NC(=O)CC[C@H](NC(=O)CCCCCCCCCCCCCCCCC(=O)O)C(=O)O)C(=O)O)C(=O)N[C@@H](CC(N)=O)C(=O)N[C@@H]([C@@H](C)O)C(=O)N[C@@H](C)C(=O)N[C@@H]([C@@H](C)O)C(=O)N1)[C@@H](C)O)C(=O)N[C@@H](CC(C)C)C(=O)N1CCC[C@H]1C(=O)N1CCC[C@H]1C(=O)N[C@H](C(=O)N[C@@H](CC(N)=O)C(=O)N[C@H](C(=O)NCC(=O)N[C@@H](CO)C(=O)N[C@@H](CC(N)=O)C(=O)N[C@H](C(=O)N[C@@H](Cc1ccc(O)cc1)C(N)=O)[C@@H](C)O)C(C)C)[C@@H](C)O

How the values were obtained:
[1] = molecular target: T1, human amylin receptor (calcitonin …); assay: cell-based or functional assay
[2] = molecular target: T2, human calcitonin receptor; assay: cell-based or functional assay

Binder	EC50 (cAMP production) [1]	Ratio (EC50 hCTR / EC50 hAMYR3) [1]	EC50 (cAMP production) [2]
K([γGlu-C18 diacid])KCNTATCATQRLANFLVHSSNN[αMeF]GPILPPTNVGSNTY-NH2 (disulfide 3-8) [Peptide 14 (SEQ ID NO: 14)]	0.22 nM	6	1.35 nM
B1	1.2 nM	8	10.2 nM
B2	0.445 nM	19	8.45 nM
B3	0.118 nM	4.8	0.568 nM
B4	0.364 nM	19.6	7.13 nM
